Test: yeast display, Sf9 membrane polyspecificity reagent, FACS + sequencing; frameworks hold sequencing errors
How it was run: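 Polyreactivity labels are assigned by the sorting gate from which each nanobody was recovered. The gates were low and high (top ~1%), set on anti-HA fluorescence for expression and streptavidin fluorescence for reagent binding. Before sorting, galactose-induced (36–48 hours) yeast display cells were stained for 1 hour at 4 °C with 10% biotinylated, detergent-solubilized Sf9 membrane reagent.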

Sequence | polyreactivity (PSR sort gate)
QVQLVESGGGLVQAGGSLRLSCAASGRIIRSYAMGRYRQAPRKERELVDAITTGGRTYYADSVKGRFTISRDNAKNTVYLQMNSLKPEDTAVYYCNSALVYRGTDTNDYWGQGTQVTVSS | high polyreactivity
QVQLVESGGGLVQAGGSLRLSCAASGGTFCRNVMGWYRQAPGKERELVAAISRRGSSTYYADSVKGRFTISRDNAKNTVYLQMNSLKPEDTAVYYCARDQYTGADEAGDDYWGQGTQVTVSS | high polyreactivity
QVQLVESGGGLVQAGGSLRLSCAASGRIFWPYAMGWYRQAPGKERELVAAISRGGSTYYADSVKGRFTISRDNAKNTVYLQINSLKPEDTAVYYCAVAFRGSYRPAYYYWRQGTQVTVSS | high polyreactivity
QVQLVESGGGLVQAGGSLRLSCAASGSIFSRYAMGWYRQAPGKERELVAAITWSGGSTYYADSVKGRFTISRDNAKNTVYLQMNSLKPEDTAVYYCAAVGYAPYNHRYDYWGQGTQVTVSS | low polyreactivity
QVQLVESGGGLVQAGGSLRLSCAASGSIFAVYAMGWYRQAPGKERELVASISRTGTTNYADSVKGRFTISRDNAKNTVYLQMNSLKPEDSAVYYCNADAYLYYKYHWGFTFYQYVYWGQGTEVTVSS | low polyreactivity
QVQLVESGGGLVQAGGSLRLSCAASGFIFGHYAMGWYRPAPGKERELVAGINSSGGSTHYADSVKGRFTISRDNAKNTVYLQMNSLKPEDTAVYYCAADVYRYYAGSRYYYWGQGTQVTVSS | low polyreactivity
QVQLVESGGGLVQAGGSLRLSCAASGSIFKFNTMGWYRQAPGKERELVASITRVGSTYYADSVKGRFTISRDNAKNTVYLQMNSLKPEDTAVYYCAARFLYYTYKTFRTYDYWGQGTQVSVSS | high polyreactivity
QVQLVDSGGGLVQAGGSLRLSCAASGRTFRYYAMGSYRQAPGKERELVAAISGRGGSTYYADSVKGRFTISRDNAKNTVYLLMNSLKPADTAVYYCAKRGYYRSRRYDYWGQGTQVTVSS | high polyreactivity
QVQLVESGGGLVQAGGSLRLSCAASGFIFYRYAMGWYRQAPGKERELVASITRSGGSTYYADSVKGRFTISRDNAKNTVYLQMNCLKPEDTAVYYCAADRYLGTYRYRYDYWGQGTQVTVSS | high polyreactivity
QVQLVESGGGLVQAGGSLRLSCAASGITFYGYAMGWYRQAPGKERELVAVITSSGSSTYYADSVKGRFTISRDNAKNTVYLQMNSLKPEDTAVYYCNARPGRRSLRSRTYDYWGQGTQVTVSS | high polyreactivity
QVQLVESGGGLVQAGGSLRLSCAASGSIFEQNAMGWYRQAPGKERELVAGINEGGGSTYYADSVKGRFTISRDNAKNTVYLQMNSLKPEDTAVYYCAATLGSRWAIYDYWGQGTQVTVSS | high polyreactivity
QVQLVESGGGLVQAGRSLRLSCAASGLTFLAYDMGWYRQAPGKVRQLVAAITGGGSTHYADSVKGRFTISRDNAKNTVYLQMTSLKPDDTAVSYCNADVYVYSVTSHYPSYRLDYWGHGTQVTVSS | high polyreactivity
QVQLVESGGGLVQAGGSLRLSCAASGFISGKYAMGWYRQAPGKERELVASIRSGGSTNYADSVKGRFTISRDNAKNTVYLQMNSLKPEDTAVYYCAKLRGSRGVIYDYWGQGTQVTVSS | high polyreactivity
QVQLVESGGGLVQAGGSLRLSCAASGFTFPKYAMGWYRQAPGKERELVAAITWSGGSTRYADSVKGRFTISRDNAKNTVYLQMNSLKPEDTAVYYCAADRRSGYSRYKYGRGDYWGQGTQVTVSS | high polyreactivity
QVQLVESGGGLVQAGGSLRLSCAASGIYINAMGWYRQAPGKERELVAAISRGGSTYYADSVKGRFTISRDNAKNTVYLKMNSLKPEDTAVYYCAKLIGRWRLYHTFVKGDYWGQGTQVTVSS | high polyreactivity
QDQHVESGGGLVQAGGSLRLSCAASGSIFVTNAMGWCRQARGKERELVAAISVSGGSTYYADSVKGRFTISRDNAKHTVYLQMTSLKPEDTAVYYCNTVRSPPGHDSWGQGTQVTVSS | low polyreactivity
QVQLVESGGGLVQAGGSLRLSCAASGSTFAQYVMGWYRQAPWKERELFAAISRGGGRTYYADSVKGRFTISRDNAKNTVYLQMNSLKPEDTAVYYCAAETLGVYDYESYNYYWGQGTQVTVSS | high polyreactivity
QVQLVESGGGLVQAGGILRLSCDASGRIFYSYAMGWYRQAHGKERVLVAAIDESVGSKYYADSVKGRFTISRDNAKNTVYLHMNSLKREDTAVYYCAADYLLVLFYYWGQGTQVTVSS | low polyreactivity
QVQLVESGGGLVQAGGSLRLSCAASGSTFYQNAMGWYRQAPGKEMELVAAISSSGRTYYADSVKGRFTISRDNAKNTVFLQMNSLKPEDTAVYYCAFGAYGSLYSIRVAYGRMDYWGQGTQVTVSS | high polyreactivity
QVQLVESGGGLVQAGGSLRLSCAASGSTYDIYAMGWYRQAPGKEREKVAAISWSGGSTHYADSVKGRFTISRDNAKNTVFFQMNSLKPEDTAVYYCAAVGRLWSLWRTKSYNYWGQGTEVTVSS | low polyreactivity
QVQLVESGGGLVQAGGSLRLSCAASGFTFWFYAMGWYRQAPGKERELVAAISWDGSRTYYADSVKGRFTISRDHAKNTVYLQMNSLKPEDTAVYYCAAESEDSNYNYWGQGTQVTVSS | high polyreactivity
